From paper PMC5844793 (Bioorganic & medicinal chemistry, 2017)
Entries after “also recorded” stand apart in the source; their conditions may differ. Where two headings read alike, the source gives them in different places. *1 amine or outer side, *2 acyl side, *3 side chain or, on linkers, in order; H or OH if unused. Bridges are numbered along the chain shown (N, C = ends). The star is where a group is joined. fluorescein = fluorescein: a label attached as NHS-fluorescein acylation on the lysine side chain (K*); pXylylene = c1cc(C[*:2])ccc1C[*:1]; Cysteamide = C(CS[*:3])N[*:1]; 4‑pentynyl = C#CCCC*

T1: cNPF1Flu
T1 chain: cyclo(YNPFEEGK(fluorescein))

T2: 4-PX (bridge 1-C; not fully specified (bridges))
T2 chain: {4‑pentynyl}-CNPFEE-Cysteamide

T3: 1-PX (thioether 1-C via pXylylene (inferred))
T3 chain: {4‑pentynyl}-CYNPFEE-Cysteamide

T4: 4-OX (bridge 1-C; not fully specified (bridges))
T4 chain: {4‑pentynyl}-CNPFEE-Cysteamide

T5: 4-MX (bridge 1-C; not fully specified (bridges))
T5 chain: {4‑pentynyl}-CNPFEE-Cysteamide

T6: 3-OX (bridge 1-C; not fully specified (bridges))
T6 chain: {4‑pentynyl}-CNPFE-Cysteamide

T7: 5-OX (linker 1-6 via ortho‑xylene (inferred))
T7 chain: Ac-CNPFEC-OH

T8: cNPF1 (backbone cyclic)
T8 chain: YNPFEEGG

T9: 1-MX (thioether 1-C via meta‑xylene)
T9 chain: {4‑pentynyl}-CYNPFEE-Cysteamide


Tests used:
HeLa cells = test: Cell-based transferrin; conditions: 50 μM during 60-min pulse and 30-min chase
Flu-4-PX [1] = target: Flu-4-PX
Flu-1-PX [2] = target: Flu-1-PX
Flu-4-PX [3] = target: Flu-4-PX; remark: listed apart in the source
Flu-5-OX [4] = target: Flu-5-OX
Flu-3-OX [5] = target: Flu-3-OX
Flu-3-OX [6] = target: Flu-3-OX; remark: listed apart in the source
Flu-1-PX [7] = target: Flu-1-PX; remark: listed apart in the source
cNPF1Flu = target: T1, cNPF1Flu; test: fluorescence polarization
4-PX = target: T2, 4-PX; test: fluorescence polarization competition
1-PX = target: T3, 1-PX; test: fluorescence polarization competition
4-OX = target: T4, 4-OX; test: fluorescence polarization competition
4-MX = target: T5, 4-MX; test: fluorescence polarization competition
3-OX = target: T6, 3-OX; test: fluorescence polarization competition
5-OX = target: T7, 5-OX; test: fluorescence polarization competition
cNPF1 = target: T8, cNPF1; test: fluorescence polarization competition
1-MX = target: T9, 1-MX; test: fluorescence polarization competition
Flu-5-OX [8] = target: Flu-5-OX; remark: listed apart in the source

Molecule | effect on trafficking/recycling of Tf-488 (HeLa cells) | Kd (Flu-4-PX [1]) | Kd (Flu-1-PX [2]) | Kd (Flu-4-PX [3]) | Kd (Flu-5-OX [4]) | Kd (Flu-3-OX [5]) | Kd (Flu-3-OX [6]) | Kd (Flu-1-PX [7]) | Kd (cNPF1Flu) | IC50 (4-PX) | IC50 (1-PX) | IC50 (4-OX) | IC50 (4-MX) | IC50 (3-OX) | IC50 (5-OX) | IC50 (cNPF1) | IC50 (1-MX) | Kd (Flu-5-OX [8])
COc1cc(NC(C)CCCN)c2ncccc2c1 (stereo not drawn) [primaquine] | increased signal following the chase, consistent with impaired recycling of internalized Tf-488; also recorded: inhibition of recycling |  |  |  |  |  |  |  |  |  |  |  |  |  |  |  |  | 
EHD1-EH EH domain (protein) VGKDKPTYDEIFYTLSPVNGKITGANAKKEMVKSKLPNTVLGKIWKLADVDKDGLLDDEEFALANHLIKVKLEGHELPADLPPHLVPPSKRRHE |  | 1800 nM | 6 µM | 8.1 µM | 7.3 µM | 14.6 µM | 4.5 µM | 1100 nM | 3000 nM | 38.9 µM | 27.1 µM | 62.8 µM | 88.1 µM | 76.5 µM | 34 µM | 55.5 µM | 68.8 µM | 1600 nM
